Results from publication PMC5693750 (Journal of molecular biology, 2017).
Each block holds one molecule with its values, some of them ahead of it.

T1: Swi6 chromoshadow domain (CSD) (S. pombe, UniProt P40381 261-328)
T1 sequence: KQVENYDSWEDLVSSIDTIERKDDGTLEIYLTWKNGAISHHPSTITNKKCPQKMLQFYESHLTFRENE

B1: Swi6 (full-length, wild type) (natural protein, S. pombe, UniProt P40381 1-328, looked up)
chain: MKKGGVRSYRRSSTSKRSVIDDDSEPELPSMTKEAIASHKADSGSSDNEVESDHESKSSSKKLKENAKEEEGGEEEEEDEYVVEKVLKHRMARKGGGYEYLLKWEGYDDPSDNTWSSEADCSGCKQLIEAYWNEHGGRPEPSKRKRTARPKKPEAKEPSPKSRKTDEDKHDKDSNEKIEDVNEKTIKFADKSQEEFNENGPPSGQPNGHIESDNESKSPSQKESNESEDIQIAETPSNVTPKKKPSPEVPKLPDNRELTVKQVENYDSWEDLVSSIDTIERKDDGTLEIYLTWKNGAISHHPSTITNKKCPQKMLQFYESHLTFRENE
B2: Chp2 (full-length, wild type) (natural protein, S. pombe, UniProt O42934 1-380, looked up)
chain: MVKSADLDLMNSIISESDENFSPPPFTVEEAENSINNKSSTASLESPQNGSWHPSLYGLSVPEKTHIQNSLDLYSHGNSGSQKTHNVSFSCEIRKVKSSKLSPISNMEDSEDKKEEDESSSYKNEFKSSSSASVSSNFEKTSGSDDHNSQSPVPLNEGFEYIASSGSEDKNSDEEFAVEMILDSRMKKDGSGFQYYLKWEGYDDPSDNTWNDEEDCAGCLELIDAYWESRGGKPDLSSLIRLTRSRARSSNEASYVEKDESSNSDDSISYKRRRSRNAANRITDYVDSDLSESSMKEKQSKIEKYMKSDKSSKNFKPPFQKKSWEDLVDCVKTVQQLDNGKLIAKIKWKNGYVSTHDNIIIHQKCPLKIIEYYEAHIKFT

Legend:
[1] = molecular target: H3Kc9me3 mononucleosome (Xenopus laevis); assay: fluorescence polarisation
[2] = molecular target: H3Kc9me3 mononucleosome (Xenopus laevis); assay: AUC
H3K9me3 tail peptide = assay: fluorescence polarisation
[3] = molecular target: Unmethylated H3 tail peptide; assay: fluorescence polarisation
AUC [4] = molecular target: the molecule itself; assay: AUC
AUC [5] = molecular target: the molecule itself; assay: AUC; remark: listed apart in the source
[6] = molecular target: B2; assay: fluorescence polarisation
[7] = molecular target: B1; assay: fluorescence polarisation
[8] = molecular target: T1, Swi6 chromoshadow domain (CSD); assay: NMR titration

fold weaker Kd than wild-type Chp2 [1]: 3 fold
Molecule: Chp2 I370E (from UniProt O42934 1-380) (natural protein)

Kd [1]: 0.13 µM
Molecule: Swi6 (full-length, wild type) (from UniProt P40381 1-328) (natural protein)

fold weaker Kd than wild-type Swi6 [1]: 8.5 fold
Molecule: Swi6 L315D (from UniProt P40381 1-328) (natural protein)

Kd [1]: 0.43 µM | stoichiometry N [2]: 4
Molecule: Chp2 (full-length, wild type) (from UniProt O42934 1-380) (natural protein)

Molecule: B1
fold weaker binding than Chp2 to the same peptide (H3K9me3 tail peptide): 5.5 fold | fold weaker binding than Swi6 to H3Kc9me3 nucleosomes (H3K9me3 tail peptide): 77 fold | fold weaker binding than to the H3K9me3 tail peptide [3]: > 10 fold | binding result (AUC [4]): binds

Molecule: B2
Kd (H3K9me3 tail peptide): 1.85 µM | fold weaker binding than to the H3K9me3 tail peptide [3]: > 10 fold | Kd (AUC [5]): 183 µM

Kd [6]: 58.5 µM | Kd [7]: 6.6 ± 2.1 µM
Molecule: EKAKTSNVCVCIPCKSAEQ [Sgo1 peptide]

Kd [8]: 68 ± 15 µM | Kd fitted for residue E280 [8]: 62.5 ± 15.4 | Kd fitted for residue H321 [8]: 51.9 ± 7.84
Molecule: RAVTQYLLHLLQKARPTSQ [Clr3 peptide]
